The source of these data is patent US20210155689A1 (SHANGHAI PHARMAEXPLORER, published 2021).

Values joined by “and” are separate entries in the source; they are usually repeats but may differ in a detail not shown here. Identical values can stand only once.

The target in test [1] is monkey LAG-3 (full length, on the cell surface) (monkey). Briefly: FACS, HEK293-cLAG-3; 0.320 nM. A general note: A flow cytometer gives signals particle by particle.
The target of test [2] is human LAG-3 (full length, on the cell surface) (human) (UniProt P18627). Briefly: cell-based or functional assay.
Target sequence in this assay (P18627 23-525 limits assumed): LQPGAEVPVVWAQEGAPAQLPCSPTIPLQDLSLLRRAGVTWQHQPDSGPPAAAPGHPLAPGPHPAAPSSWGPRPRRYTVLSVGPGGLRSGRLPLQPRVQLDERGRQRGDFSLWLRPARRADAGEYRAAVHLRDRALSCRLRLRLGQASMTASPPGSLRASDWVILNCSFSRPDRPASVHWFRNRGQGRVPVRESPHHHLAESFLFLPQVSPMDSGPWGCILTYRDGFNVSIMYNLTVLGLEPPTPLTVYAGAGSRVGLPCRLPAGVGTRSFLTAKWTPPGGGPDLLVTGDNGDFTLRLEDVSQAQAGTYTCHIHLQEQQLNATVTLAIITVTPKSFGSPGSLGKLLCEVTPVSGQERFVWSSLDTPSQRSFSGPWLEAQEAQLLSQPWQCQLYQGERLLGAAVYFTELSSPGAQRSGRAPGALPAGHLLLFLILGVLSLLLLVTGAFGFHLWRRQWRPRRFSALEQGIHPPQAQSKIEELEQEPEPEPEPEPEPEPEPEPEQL
Test [3] has as its target human LAG-3 protein with hFc tag (hLAG-3-hFc protein) (human) (UniProt P18627). The experiment in a line: FACS, blocks LAG-3-hFc binding to MHC II on Raji; 0.000 nM.
Test [4] has the same target. Briefly: FACS, blocks LAG-3-hFc binding to MHC II on Raji; 2.469 nM.
Test [5] deals with human LAG-3 (full length, on the cell surface) (human) (UniProt P18627). The experiment in a line: FACS, HEK293-hLAG-3; 8.000 nM.
Test [6] concerns the target monkey LAG-3 (full length, on the cell surface) (monkey). The experiment in a line: FACS, HEK293-cLAG-3; 200.000 nM.
For test [7], the target named is human LAG-3 protein with hFc tag (hLAG-3-hFc protein) (human) (UniProt P18627). Briefly: FACS, blocks LAG-3-hFc binding to MHC II on Raji; 22.222 nM.
In test [8] the target is human LAG-3 (full length, on the cell surface) (human) (UniProt P18627). Briefly: FACS, HEK293-hLAG-3; 0.064 nM.
For test [9] the target is unchanged. The experiment in a line: FACS, HEK293-hLAG-3; 1.600 nM.
Test [10] shares this target. The experiment in a line: FACS, HEK293-hLAG-3; 40.000 nM.
Test [11] addresses monkey LAG-3 (full length, on the cell surface) (monkey). The experiment in a line: FACS, HEK293-cLAG-3; 0.064 nM.
The target of test [12] is human LAG-3 protein with hFc tag (hLAG-3-hFc protein) (human) (UniProt P18627). Briefly: FACS, blocks LAG-3-hFc binding to MHC II on Raji; 0.274 nM.
The target in test [13] is monkey LAG-3 (full length, on the cell surface) (monkey). Briefly: FACS, HEK293-cLAG-3; 40.000 nM.
For test [14] the target is unchanged. The experiment in a line: FACS, HEK293-cLAG-3; 0.000 nM.
Test [15] has as its target human LAG-3 protein with hFc tag (hLAG-3-hFc protein) (human) (UniProt P18627). Briefly: FACS, blocks LAG-3-hFc binding to MHC II on Raji; 0.823 nM.
The target in test [16] is monkey LAG-3 (full length, on the cell surface) (monkey). Briefly: FACS, HEK293-cLAG-3; 8.000 nM.
The target in test [17] is human LAG-3 protein with hFc tag (hLAG-3-hFc protein) (human) (UniProt P18627). The experiment in a line: FACS, blocks LAG-3-hFc binding to MHC II on Raji; 7.407 nM.
Test [18] has as its target monkey LAG-3 (full length, on the cell surface) (monkey). Briefly: FACS, HEK293-cLAG-3; 0.013 nM.
Test [19] has as its target human LAG-3 (full length, on the cell surface) (human) (UniProt P18627). The experiment in a line: FACS, HEK293-hLAG-3; 0.000 nM.
For test [20] the target is unchanged. Briefly: FACS, HEK293-hLAG-3; 0.320 nM.
The target of test [21] is human LAG-3 protein with hFc tag (hLAG-3-hFc protein) (human) (UniProt P18627). The experiment in a line: FACS, blocks LAG-3-hFc binding to MHC II on Raji; 66.667 nM.
Test [22] deals with human LAG-3 (full length, on the cell surface) (human) (UniProt P18627). The experiment in a line: FACS, HEK293-hLAG-3; 0.013 nM.
The target is the same in test [23]. Briefly: FACS, HEK293-hLAG-3; 200.000 nM.
Test [24] addresses human LAG-3 protein with hFc tag (hLAG-3-hFc protein) (human) (UniProt P18627). The experiment in a line: FACS, blocks LAG-3-hFc binding to MHC II on Raji; 200.000 nM.
Test [25] deals with monkey LAG-3 (full length, on the cell surface) (monkey). Briefly: FACS, HEK293-cLAG-3; 1.600 nM.
For test [26], the target named is T1, human LAG-3 ECD (antigen protein of the affinity test) (human, UniProt P18627 23-450).
T1 sequence: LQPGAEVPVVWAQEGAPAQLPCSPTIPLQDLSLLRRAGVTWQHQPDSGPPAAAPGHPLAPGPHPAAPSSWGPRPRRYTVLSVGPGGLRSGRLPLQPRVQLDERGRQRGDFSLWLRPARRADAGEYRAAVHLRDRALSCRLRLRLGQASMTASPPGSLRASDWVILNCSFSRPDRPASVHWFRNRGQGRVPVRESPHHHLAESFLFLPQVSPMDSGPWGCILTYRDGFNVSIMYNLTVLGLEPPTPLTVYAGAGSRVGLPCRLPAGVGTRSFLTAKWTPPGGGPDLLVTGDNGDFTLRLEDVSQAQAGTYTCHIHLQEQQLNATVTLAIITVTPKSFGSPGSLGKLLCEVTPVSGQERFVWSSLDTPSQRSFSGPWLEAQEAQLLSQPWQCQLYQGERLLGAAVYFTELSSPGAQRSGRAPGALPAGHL
The experiment in a line: SPR, antibody captured by anti-human Fc IgG on CM5; ratio of KD values. The protocol: First, anti-human Fc IgG was immobilized on the surface of the CM5 chip to 6000-10000 RU by amino coupling method, with FC1 as the reference channel. The coupling process was as follows: a freshly prepared 1:1 mixture of 50 mM NHS and 200 mM EDC was activated for 7 minutes, then injected with 10-50 ug/ml anti-human Fc IgG diluted in 10 mM sodium acetate ph5.0 buffer. The remaining activated sites were blocked with 1M ethanolamine. Then, HBS-EP+ buffer was used to dilute the antibody to be tested to 5 ug/ml (adjustable according to the capture level) and the antibodies were captured on the chip at a flow rate of 10 ul/min to obtain a response value of about 100˜300 RU. Then the antigen protein was diluted to 100 nM (the highest concentration was tentatively 100 nM), and flew through the chip surface at a flow rate of 30 ul/min. If enough signal value was obtained, the antigen-protein was diluted by several concentration gradients, and flew through the chip surface respectively. At the end of each cycle, the chip surface was regenerated with 10 mM Glycine at pH 1.5. The kinetic rate constant needed to be subtracted from the blank control, and the data was fitted with the global fit analysis method 1:1 combination model. The dissociation equilibrium rate constant (KD) was calculated according to the following formula: KD=kd/ka.
The method was the same as that in Example 5.
(In general: In SPR one partner is held on a chip, and binding of the other changes the refractive index at the surface.)

Test [27] has as its target human LAG-3 (full length, on the cell surface) (human) (UniProt P18627). Briefly: cell-based or functional assay. This is another data set of the same source.

Chain of monkey LAG-3 (full length, on the cell surface) (monkey) (P18627 other isoform, or with tags, fused parts or gaps limits assumed): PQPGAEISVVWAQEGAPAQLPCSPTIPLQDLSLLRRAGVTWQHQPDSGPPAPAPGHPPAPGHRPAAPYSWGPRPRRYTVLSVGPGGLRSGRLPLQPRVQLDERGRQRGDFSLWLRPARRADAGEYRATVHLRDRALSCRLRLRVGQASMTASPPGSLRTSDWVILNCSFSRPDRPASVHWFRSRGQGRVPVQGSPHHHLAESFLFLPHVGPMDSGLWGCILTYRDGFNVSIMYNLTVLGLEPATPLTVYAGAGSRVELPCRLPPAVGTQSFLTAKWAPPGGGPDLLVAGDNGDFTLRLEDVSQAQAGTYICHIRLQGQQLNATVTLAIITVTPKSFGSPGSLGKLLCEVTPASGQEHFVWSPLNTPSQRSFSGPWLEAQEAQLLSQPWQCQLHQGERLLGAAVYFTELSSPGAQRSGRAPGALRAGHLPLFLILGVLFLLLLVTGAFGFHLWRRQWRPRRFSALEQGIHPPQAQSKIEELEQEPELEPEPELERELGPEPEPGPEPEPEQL

For the molecule mIgG1 (murine IgG control) (antibody), the Mean fluorescence intensity was 3.3 MFI and 4 MFI in [1]; 2.9 MFI and 3.9 MFI in test [5]; 3.6 MFI and 4.2 MFI in [6]; 2.9 MFI and 3.8 MFI in test [8]; 2.7 MFI and 3.9 MFI in [9]; 2.8 MFI and 4 MFI in [10]. Moreover, the Mean fluorescence intensity in test [11] is 3.2 MFI and 4 MFI; in test [13], 3.3 MFI and 4.1 MFI; in test [14], 3.4 MFI and 4 MFI; in test [16] it was 3.3 MFI and 4.1 MFI; in test [18] it was 3.5 MFI and 4 MFI; in test [19], 3 MFI and 3.8 MFI. For the same molecule, the Mean fluorescence intensity in [20] was 2.7 MFI and 3.8 MFI; in [22], 2.9 MFI and 3.8 MFI; in [23] it was 2.8 MFI and 4.2 MFI; in test [25] it was 3.2 MFI and 4 MFI. Moreover, the mIL-2 (pg/mL), antigen-specific T lymphocyte stimulation test; control IgG 0.016 ug/mL in test [2] was 177 pg/mL and 104 pg/mL. For the same molecule, the mIL-2 (pg/mL), antigen-specific T lymphocyte stimulation test; control IgG 0.08 ug/mL in test [2] was 175 pg/mL and 89.2 pg/mL. For the same molecule, the mIL-2 (pg/mL), antigen-specific T lymphocyte stimulation test; control IgG 2 ug/mL in test [2] is 174 pg/mL and 84.1 pg/mL. Moreover, the mIL-2 (pg/mL), antigen-specific T lymphocyte stimulation test; control IgG 4 ug/mL (so in the source) in [2] is 145 pg/mL and 84.2 pg/mL. Further, the mIL-2 (pg/mL), antigen-specific T lymphocyte stimulation test; control IgG 10 ug/mL in [2] was 169 pg/mL and 108 pg/mL. In addition, the Inhibition rate (%) in test [3] was 8.2% and -11.5%; in test [4], 13.7% and 1.8%; in test [7], 2.8% and 4.2%; in test [12], 5.3% and -3.9%; in [15], 13.8% and 4%; in test [17], 3.4% and 2.8%. Also, the Inhibition rate (%) was 6.7% and 7.4% in test [21]; 12.8% and -0.9% in [24].

B1: 556F6B8-3 (D→E) (humanized antibody with hot spot mutation) (antibody, human IgG4, V domains shown)
VH: QVQLQESGPGLVKPSETLSLTCTVSGFSLIKYGVHWIRQPPGKGLEWIGVIWRGGITDYNAAFMSRVTISKDTSKSQVSLKLSSVTAADTAVYYCARWEGPLAMDYWGQGTTVTVSS
VL: DIQLTQSPSFLSASVGDRVTITCKASQDVGTTVAWYQQKPGKAPKLLIYWASTRHTGVPSRFSGSGSGTEFTLTISSLQPEDFATYYCQQYSSYPYTFGQGTKLEIK
notes: made as the humanized antibodies (human IgG4 constant region); also called humanized antibody 556F6B8-3 with hot spot mutation
As to B1, in test [26], the “fold reduction of affinity against the corresponding chimeric antibody” value was found to be 12.5 fold.

B2: 405B8H3-1 (D→E) (humanized antibody with hot spot mutation) (antibody, human IgG4, V domains shown)
VH: QVQLVQSGAEVKKPGASVKVSCKASGYTFTDYEMHWVRQAPGQGLEWMGATDPETGNSAYNQKFKGRVTMTRDTSTSTVYMELSSLRSEDTAVYYCISTGWNDWGQGTTVTVSS
VL: DIQMTQSPSSLSASVGDRVTITCKASQDINSYLSWFQQKPGKAPKSLIYRADRLLEGVPSRFSGSGSGTDFTLTISSLQPEDFATYYCLQYDEFPYTFGQGTKLEIK
notes: made as the humanized antibodies (human IgG4 constant region); also called 405B81-13-1 (D→E); hot-spot mutated antibody
For B2, the “fold increase of affinity against the chimeric antibody 405B8H3” value in test [26] is 1.5 times.

B3: 553G8G8 (mouse antibody purified from hybridoma) (antibody, V domains shown)
VH: RVQLKQSGPGLVQPSQSLSITCTVSGFSLIKYGVHWVRQSPGEGLEWLGVIWRGGITDYNAAFMSRLSITKDNSKSQVFFKMNSLQADDTAIYYCAKWDGPLAMDYWGQGTSVTVSS
VL: DVQMIQSPSSLSASLGDMVTMTCQASQGTNINLNWFQQKPGKAPKLLIYGASNLEDGVPSRFSGSRYGTDFTLTISSLEDEDMATYFGLQHSYLPLTFGAGTKLELK
For the molecule B3, the Mean fluorescence intensity in test [1] amounted to 8.8 MFI; in test [5], 68.4 MFI; in test [6] it was 128 MFI; in [8], 7 MFI; in test [9], 44.4 MFI; in test [10], 79.4 MFI. For the same molecule, the Mean fluorescence intensity in test [11] turned out to be 4.2 MFI; in test [13], 112 MFI; in [14] it was 3.2 MFI; in [16], 77.7 MFI; in test [18] it was 3.5 MFI; in test [19], 2.7 MFI. Moreover, the Mean fluorescence intensity came to 17.1 MFI in test [20], 3.9 MFI in [22], 81 MFI in [23] and 28.1 MFI in [25]. Further, the Inhibition rate (%) in test [3] is -12.4%; in test [4] it was 45%; in test [7] it was 95.8%; in test [12], 8.1%; in test [15], 15.2%; in test [17] it was 93.8%. For the same molecule, the results for the Inhibition rate (%) in test [21] and in test [24] were 96% and 95.9%, respectively. The molecule also showed a mIL-2 (pg/mL), antigen-specific T lymphocyte stimulation test; antibody 0.016 ug/mL in test [27] of 98.2 pg/mL. The same molecule yielded a mIL-2 (pg/mL), antigen-specific T lymphocyte stimulation test; antibody 0.08 ug/mL in test [27] of 134 pg/mL. Also, the mIL-2 (pg/mL), antigen-specific T lymphocyte stimulation test; antibody 2 ug/mL in test [27] is 251 pg/mL. The molecule also yielded a mIL-2 (pg/mL), antigen-specific T lymphocyte stimulation test; antibody 10 ug/mL in test [27] of 352 pg/mL.
